# B1: Bcl2L12-V5-ΔBH2: V5 tagged mutant lacking amino acid residues 311-334 (BH2 domain) of human Bcl2L12; sequence 1-310 (protein)
# chain: MGRPAGLFPPLCPFLGFRPEACWERHMQIERAPSVPPFLRWAGYRPGPVRRRGKVELIKFVRVQWRRPQVEWRRRRWGPGPGASMAGSEELGLREDTLRVLAAFLRRGEAAGSPVPTPPRSPAQEEPTDFLSRLRRCLPCSLGRGAAPSESPRPCSLPIRPCYGLEPGPATPDFYALVAQRLEQLVQEQLKSPPSPELQGPPSTEKEAILRRLVALLEEEAEVINQKLASDPALRSKLVRLSSDSFARLVELFCSRDDSSRPSRACPGPPPPSPEPLARLALAMELSRRVAGLGGTLAGLSVEHVHSFTP
# modifications: left off: small tags and cut ends
# B2: Bcl2L12-V5: Bcl2L12 polypeptide having the V5 epitope tag, ectopically expressed from pBabe-Bcl2L12-V5 vector; human amino acid sequence 1-334 (protein)
# chain: MGRPAGLFPPLCPFLGFRPEACWERHMQIERAPSVPPFLRWAGYRPGPVRRRGKVELIKFVRVQWRRPQVEWRRRRWGPGPGASMAGSEELGLREDTLRVLAAFLRRGEAAGSPVPTPPRSPAQEEPTDFLSRLRRCLPCSLGRGAAPSESPRPCSLPIRPCYGLEPGPATPDFYALVAQRLEQLVQEQLKSPPSPELQGPPSTEKEAILRRLVALLEEEAEVINQKLASDPALRSKLVRLSSDSFARLVELFCSRDDSSRPSRACPGPPPPSPEPLARLALAMELSRRVAGLGGTLAGLSVEHVHSFTPWIQAHGGWEGILAVSPVDLNLPLD
# modifications: left off: small tags and cut ends
# Experiments:
# [1] = tested on: caspase-2; caspase-3/7; caspase-6; caspase-8; and caspase-9; test: Caspase activity with AFC-labeled peptides in lysates of STS-treated astrocytes; assay type: cell-based; details: for caspase activity (caspase-2, -3/7, -6, -8, -9): STS (500 nm) 24 hours
# Method: The following experiment was performed to determine whether Bcl2L12 inhibits caspase activation. Briefly, a caspase activation profile was generated using fluorochrome-labeled peptides resembling the ideal cleavage sites for caspases-2 (VDVAF; SEQ ID NO:29), caspases-3/7 (DEVD; SEQ ID NO:27), caspase-6 (VEID; SEQ ID NO:31), caspase-8 (IETD; SEQ ID NO:30), and caspase-9 (LEHD; SEQ ID NO:28). Two confluent 15 cm dishes of astrocytes (pBabe or Bcl2L12-V5 transfected) were left untreated or treated with STS (500 nm) for 24 hours and lysed in a lysis buffer containing 1% Trition X-100. The lysed cells were then spun for 15 minutes at 14,000 rpm at 4° C. to obtain a postnuclear supernatant. The supernatants (standardized to 20 mg of protein) were incubated with 40 μM of AFC labeled peptide substrate for 1 hour at 37° C. The samples were read in a fluorescence plate reader, and the specific RFUs were calculated. In the presence of active caspases, the fluorogenic group AFC is released from the peptide, and its fluorescence can be quantified using a plate reader.
# The mechanism of action of EGFR*, in contrast to Bcl2L12, stems from the activation of upstream survival pathways that converge to inhibit cytochrome c redistribution and subsequent caspase-9 processing (FIG. 8B), as reported previously (Nagane et al., Proc Natl Acad Sci USA 95:5724-9(1998)). In addition, the ability of Bcl2L12 polypeptide to inhibit effector caspase function is reflected in decreased levels of the caspase-9 p37 as a result of caspase-3-mediated cleavage intermediate (FIG. 8A, 16 hours; Fujita et al., Cell Death Differ. 8:335-44 (2001)). […] As a consequence of a caspase-3-mediated feedback mechanism (Fujita et al., Cell Death Differ. 8:335-44 (2001); Slee et al., J Cell Biol. 144, 281-92 (1999)), caspase-9 processing in later phases of apoptosis progression was enhanced (FIG. 8C, 16 hours). […] Caspase activities were determined fluorometrically using a fluorescence plate reader. […]
# [2] = tested on: p53 mediated transcription; test: p53 luciferase reporter (PG13) in Ink4a/Arf deficient astrocytes; assay type: cell-based; details: normalized to βGal, vs vector control
# Text: Activation of the p53 transcription factor in response to a variety of cellular stresses, including DNA damage and oncogene activation, initiates a program of gene expression that blocks the proliferative expansion of damaged cells. To asses the effect of Bcl2L12 polypeptides on p53 mediated transcription, Ink4a/Arf deficient astrocytes ectopically expressing a Bcl2L12-V5 polypeptide were transfected with increasing amounts of nucleic acid encoding a p53 polypeptide and a luciferase construct bearing a dimerized p53 binding site in its promoter (PG13).
# [3] = tested on: Ink4a-/-/Arf-/- astrocytes; test: Annexin V staining of STS-treated Ink4a/Arf deficient astrocytes (FACS); assay type: cell-based, mouse
# Method: The following experiments were performed to determine whether the Bcl2L12 polypeptide influenced cell survival or apoptosis. Ink4a^−/−/Arf^−/− astrocytes retro-virally infected with vector alone (pBabe) or vector containing Bcl2 nucleic acid, Bcl2L12-V5 nucleic acid, R-RAS nucleic acid, or IRF3 nucleic acid were […] After this one day incubation, the cells were stained with annexin V (Roche). Annexin V-positive cells were determined by FACScan analysis (mean±S.D.; three independent experiments with each being performed in triplicate).
# After STS treatment, the cells were analyzed for apoptosis by assessing annexin V binding and DNA fragmentation using a FACS based analysis.
# Erk1 and Erk2 = test: Phosphorylation of Erk1/2 (p44/p42) in transfected astrocytes; assay type: cell-based; details: vs control cells expressing LacZ
# Method: Ink4a/Arf deficient astrocytes transfected with a vector encoding either LacZ, Bcl2L12-V5, or EGFR* polypeptides were cultured for six days. Each day, the number of cells in each culture was determined. In addition, stably transfected cells were harvested and assessed for the phosphorylation of Erk1/2 (p44/p42).
# astrocytes = test: Mitochondrial membrane potential (JC-1, FACS) in STS-treated astrocytes; assay type: cell-based
# Text: Like nuclear swelling and plasma membrane integration, a loss of the mitochondrial membrane potential is a hallmark of […]. To determine the dissipation of ΔΨM, STS treated astrocytes transfected with either vector only (pBabe) or a vector encoding a Bcl2L12-V5 polypeptide were stained with JC-1, and cells with an increase in fluorescence (FL-1) were quantified using FACS analysis. JC-1 (5,5′,6,6′-tetrachloro-1,1′,3,3′-tetraethylbenzimidazolylcarbocyanine iodide) is a green-fluorescent probe that exists as a monomer at low concentrations or at low membrane potential. […] Thus, the emission of this cyanine dye can be used as a sensitive measure of mitochondrial membrane potential.
# BJAB and SKW6.4 cells = test: Apoptosis of lymphoid cells stimulated with anti-CD95 or STS (FACS scatter); assay type: cell-based; details: anti-CD95 or STS 24 hours, GFP positive cells
# Method: In addition, BJAB and SKW6.4 cells were co-transfected (1:3 ratio) with a vector encoding GFP and either an empty vector control or a vector encoding Bcl2L12-V5. After 24 hours, the transfected cells were stimulated with anti-CD95 or STS for 24 hours at different concentrations. The cells were analyzed by FACS. A gate was set only on GFP positive cells. Apoptosis was defined as an increase in sideward scatter and a decrease in forward scatter. SKW6.4 cells are type I B cells, while BJAB cells are type II B cells.
Molecule,"caspase activity (caspase-2, -3/7, -6, -8, -9) [1]",transcriptional activity of p53 (reporter activity) [2],"annexin-V positive cells ([3]; 100 nM staurosporine one day, control cultures about 17-22 percent)","annexin V+/PI- cells ([3]; 500 nM STS, pBabe about 20 percent)",levels of Erk1 and Erk2 phosphorylation (Erk1 and Erk2),dissipated mitochondrial membrane potential (astrocytes),apoptosis (BJAB and SKW6.4 cells),"DEVDase activity ([1]; 0.5 μM STS, pBabe about 8500 RFUs)"
B1,even more pronounced inhibition,,,,,,,
B2,significantly impaired,marked decrease of transcriptional activity,6-7%,about 6%,higher,marked increase in the dissipated membrane potential,promoted apoptosis,about 3500 RFUs

# Reference: patent publication US7595158B2, “Bcl2L12 polypeptide activators and inhibitors” (Dana-Farber Cancer Institute, Inc., priority 2003, dated 2009)
